Data reported in US20240279284A1 (KOREA ADVANCED INSTITUTE OF SCIENCE AND TECHNOLOGY, published 2024).

Tests used:
[1] = target: BCL-xL, endogenous, in K562, HCT-116, SW620, MEWO and A375 cancer cells (Homo sapiens (Human)) (UniProt Q07817); assay: cell-based or functional assay
[2] = target: MCL-1, endogenous, in K562, HCT-116, SW620, MEWO and A375 cancer cells (Homo sapiens (Human)) (UniProt Q07820); assay: cell-based or functional assay
[3] = target: T1, BFL-1 (1-151;C4S/C19S), biotinylated, with C-terminal biotinylation sequence (UniProt Q16548 1-151); assay: SPR, biotinylated BFL-1 on CAP chip; target BFL-1
T1 construct: range 1-151; also called BFL-1 (A1)
T1 sequence: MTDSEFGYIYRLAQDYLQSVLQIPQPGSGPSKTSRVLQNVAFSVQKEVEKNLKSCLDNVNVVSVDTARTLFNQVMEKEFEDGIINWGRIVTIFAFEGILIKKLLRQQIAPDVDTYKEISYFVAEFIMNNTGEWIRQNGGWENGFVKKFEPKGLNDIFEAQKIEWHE
Protocol: (§1) SPR data were collected on an 8 K device (GE Healthcare). A Series S Biotin CAPture kit (GE Healthcare) was used to immobilize biotinylated anti-apoptotic BCL-2 proteins, and all experiments were conducted in HBS-EP+buffer solution (10 mM HEPES, 150 mM NaCl, 3 mM EDTA, 0.005% Surfactant P20; GE Healthcare). Biotinylated anti-apoptotic BCL-2 proteins were immobilized on the CAP chip until the response units reached 100. Serially diluted analytes were injected at a flow rate of 30 μl/min. Analytes were used at 20 nM for single concentration experiments. Dissociation constants (KD) and kinetic parameters (Kₐ and Kd) were estimated using Biacore 8 K evaluation software (GE Healthcare).

[4] = target: T2, MCL-1 (172-321), biotinylated, with C-terminal biotinylation sequence (Homo sapiens (Human), UniProt Q07820 172-321); assay: SPR, ratio of KD values
T2 sequence (Q07820 other isoform, or with tags, fused parts or gaps): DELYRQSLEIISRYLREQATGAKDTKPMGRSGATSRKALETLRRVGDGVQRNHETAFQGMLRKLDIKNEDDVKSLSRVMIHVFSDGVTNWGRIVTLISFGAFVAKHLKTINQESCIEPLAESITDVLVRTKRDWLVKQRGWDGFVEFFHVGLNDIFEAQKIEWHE
Protocol: as §1

[5] = target: T3, BCL-xL (1-44:85-209), biotinylated, with C-terminal biotinylation sequence (Homo sapiens (Human), UniProt Q07817 1-209, biotin on the C-terminal biotinylation sequence … (co-expressed BirA)); assay: SPR, BCL-xL immobilized, analyte series from 1.25 to 80 nM
T3 construct: Form immobilised on the CAP chip for SPR; Any purification tag from pJK hTx is not described
T3 sequence (Q07817 other isoform, or with tags, fused parts or gaps): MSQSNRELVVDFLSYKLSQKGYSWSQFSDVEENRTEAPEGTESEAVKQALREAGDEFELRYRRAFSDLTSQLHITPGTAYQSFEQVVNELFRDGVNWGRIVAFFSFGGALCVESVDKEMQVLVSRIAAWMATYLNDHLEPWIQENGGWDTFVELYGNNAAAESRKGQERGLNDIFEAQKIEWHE
Protocol: as §1

[6] = target: T2, MCL-1 (172-321), biotinylated, with …; assay: SPR, MCL-1 immobilized, analyte series from 5 to 320 nM
Protocol: as §1

[7] = target: T2, MCL-1 (172-321), biotinylated, with …; assay: SPR, biotinylated MCL-1 on CAP chip
Protocol: as §1

[8] = target: BCL-2 (1-34:chimeric loop:92-203), biotinylated, with C-terminal biotinylation sequence (UniProt P10415 1-34; P10415 92-203); assay: SPR, biotinylated BCL-2 on CAP chip
Sequence of BCL-2 (1-34:chimeric loop:92-203), biotinylated, with C-terminal biotinylation sequence (P10415 other isoform, or with tags, fused parts or gaps mutant): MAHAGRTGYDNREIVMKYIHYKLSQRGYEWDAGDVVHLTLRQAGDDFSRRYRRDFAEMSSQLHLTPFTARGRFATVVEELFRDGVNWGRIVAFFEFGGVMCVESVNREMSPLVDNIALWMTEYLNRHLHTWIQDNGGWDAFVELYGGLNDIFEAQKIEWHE
Protocol: as §1

[9] = target: T4, BCL-B (1-177;C30S/C138S), biotinylated, with C-terminal biotinylation sequence (UniProt Q9HD36 1-177); assay: SPR, biotinylated BCL-B on CAP chip; target BCL-B
T4 construct: range 1-177
T4 sequence: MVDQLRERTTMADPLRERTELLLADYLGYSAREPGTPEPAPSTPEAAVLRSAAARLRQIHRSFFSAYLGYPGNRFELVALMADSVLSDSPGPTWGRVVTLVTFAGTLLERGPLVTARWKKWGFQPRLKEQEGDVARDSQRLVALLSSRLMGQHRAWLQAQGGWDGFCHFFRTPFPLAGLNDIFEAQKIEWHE
Protocol: as §1

[10] = target: T5, BCL-W (1-164), biotinylated, with C-terminal biotinylation sequence (UniProt Q92843 1-164); assay: SPR, biotinylated BCL-W on CAP chip; target BCL-W
T5 sequence: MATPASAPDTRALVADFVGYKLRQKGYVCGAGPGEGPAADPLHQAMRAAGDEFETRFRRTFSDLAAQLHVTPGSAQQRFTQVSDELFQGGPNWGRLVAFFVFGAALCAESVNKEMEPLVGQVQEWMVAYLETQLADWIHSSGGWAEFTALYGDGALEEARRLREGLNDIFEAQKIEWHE
Protocol: as §1

[11] = target: T3, BCL-xL (1-44:85-209), biotinylated, …; assay: SPR, ratio of KD values
Protocol: as §1

[12] = target: T3, BCL-xL (1-44:85-209), biotinylated, …; assay: SPR, biotinylated BCL-xL on CAP chip
Protocol: as §1

MCL-1 (172-321) [13] = target: T6, MCL-1 (172-321) (Homo sapiens (Human), UniProt Q07820 172-321); assay: crystal structure
T6 sequence (Q07820 172-321): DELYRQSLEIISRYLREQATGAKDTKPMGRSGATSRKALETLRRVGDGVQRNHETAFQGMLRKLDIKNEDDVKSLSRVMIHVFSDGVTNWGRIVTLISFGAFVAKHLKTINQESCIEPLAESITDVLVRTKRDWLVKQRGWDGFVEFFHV
Protocol: Crystals were obtained by the hanging-drop vapor diffusion method at 20° C. […] The crystals were immersed briefly in a cryoprotectant solution. […] X-ray diffraction datasets were collected on beamline 5C at Pohang Accelerator Laboratory, South Korea. […] Then, automatic model building into the electron densities and structure refinement were performed using the PHENIX software suit. […] Iterative rounds of manual model building and refinement were carried out using the programs COOT and PHENIX. All structures were illustrated using the PYMOL software.

MCL-1 (172-321) [14] = target: T6, MCL-1 (172-321); assay: size-exclusion chromatography (Superdex 75 Increase 10/300 GL), qualitative binding assay
[15] = target: T3, BCL-xL (1-44:85-209), biotinylated, …; assay: SPR, different analyte concentrations, biotinylated BCL-xL on CAP chip
Protocol: as §1

[16] = target: T2, MCL-1 (172-321), biotinylated, with …; assay: comparison of KD values (SPR)
[17] = target: T3, BCL-xL (1-44:85-209), biotinylated, …; assay: comparison of KD values (SPR)

Sequence of BCL-xL, endogenous, in K562, HCT-116, SW620, MEWO and A375 cancer cells (Homo sapiens (Human)) (Q07817 whole entry): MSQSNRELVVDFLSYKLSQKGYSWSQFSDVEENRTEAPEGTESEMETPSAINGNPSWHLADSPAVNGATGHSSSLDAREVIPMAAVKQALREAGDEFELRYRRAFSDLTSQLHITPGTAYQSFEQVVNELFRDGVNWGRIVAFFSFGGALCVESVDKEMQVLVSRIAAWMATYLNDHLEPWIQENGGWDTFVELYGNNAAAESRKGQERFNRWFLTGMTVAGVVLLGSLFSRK

B1: 4H_αBM_3_CTS, 3×FLAG-tagged, expressed in cancer cell lines by lentivirus (designed binder, not shown: small tags and cut ends)
chain: MDAKKVAKKAAIQAARRITELAQVLVELLKEALKLDLTQEMRKKLIERYAAAIIRAIGDINNAIYQAKQEAEKLKKAGLVDSDQLDALLRALDELQKVASKAANQLGRLFEEALKRLDKDNGGEEEKDRTAKWFEFEARAIELALRLAAIGDVFDLEKEWRKLKPRMVILRLLRYIVRLVWRMH
cell viability (WST-1), A375 cells [1]: 11%
cell viability (WST-1), HCT-116 cells [1]: 50%
cell viability (WST-1), K562 cells [1]: 33%
cell viability (WST-1), MEWO cells [1]: 33%
cell viability (WST-1), SW620 cells [1]: 27%
cell viability (WST-1), A375 cells [2]: 11%
cell viability (WST-1), HCT-116 cells [2]: 50%
cell viability (WST-1), K562 cells [2]: 33%
cell viability (WST-1), MEWO cells [2]: 33%
cell viability (WST-1), SW620 cells [2]: 27%

B2: 4H_αBM_2 (I143L/I54E/G58E) (designed binder)
chain: MDAKKVAKKAAIQAARRITELAQVLVELLKEALKLDLTQEMRKKLIERYAAAIERAIEDINNAIYQAKQEAEKLKKAGLVDSDQLDALLRALDELQKVASKAANQLGRLFEEALKRLDKDNGGEEEKDRTAKWFEFEARAIELALRLAAIGDVFDLEKEWRKLK
notes: also called 4H_αBM_3 (I54E/G58E)
Kd [3]: 16.4 nM
fold reduced affinity (against 4H_αBM_2 (I54E/G58E)) [4]: ~7 fold
Kd [5]: 0.82 nM
Kd [6]: 113 nM
Kd [7]: 133 nM
Kd [8]: 2.04 nM
Kd [9]: 146 nM
Kd [10]: 1.59 nM

B3: 4H_αBM_2 (designed binder)
chain: MDAKKVAKKAAIQAARRITELAQVLVELLKEALKLDLTQEMRKKLIERYAAAIIRAIGDINNAIYQAKQEAEKLKKAGLVDSDQLDALLRALDELQKVASKAANQLGRLFEEALKRLDKDNGGEEEKDRTAKWFEFEARAIEIALRLAAIGDVFDLEKEWRKLK
fold stronger binding than 4H_αBM_1 [11]: 40 fold
Kd [12]: 0.21 nM
binding result (MCL-1 (172-321) [13]): binds

B4: 4H_αBM_1 (designed binder)
chain: MDAKKVAKKAADQAANRIRELAQVLVELLKEALKLDLTQEMRKKLIERYAAAIIRAIGDINNAIYQAKQEAEKLKKAGLVDSDQLDALLRALDELQKVASKAANQLGRLFEEALKRLDKDNGGEEEKDRTAKWFEFEARAIAIALTLAAIGDVFDLEKEWRKLK
notes: also called D81
binding result (MCL-1 (172-321) [14]): binds
Kd [15]: 8.57 nM

B5: 4H_αBM_2 (I54E/G58E) (designed binder)
chain: MDAKKVAKKAAIQAARRITELAQVLVELLKEALKLDLTQEMRKKLIERYAAAIERAIEDINNAIYQAKQEAEKLKKAGLVDSDQLDALLRALDELQKVASKAANQLGRLFEEALKRLDKDNGGEEEKDRTAKWFEFEARAIEIALRLAAIGDVFDLEKEWRKLK
notes: also called 4H_αBM_2 (154E/G58E)
Kd [7]: 19.2 nM

B6: 4H_αBM_3 (designed binder)
chain: MDAKKVAKKAAIQAARRITELAQVLVELLKEALKLDLTQEMRKKLIERYAAAIIRAIGDINNAIYQAKQEAEKLKKAGLVDSDQLDALLRALDELQKVASKAANQLGRLFEEALKRLDKDNGGEEEKDRTAKWFEFEARAIELALRLAAIGDVFDLEKEWRKLK
notes: also called 4H_αBM_2 (I143L)
fold higher binding affinity than human BIM BH3 [16]: > 8 fold
fold higher binding affinity than human BIM BH3 [17]: > 8 fold
